Test: soluble on expression in E. coli; label from the status in PepcDB or PDB records

| Sequence | soluble on expression in E. coli |
| --- | --- |
| MGSDKIHHHHHHMAVGTTKMAQMLDPEVLADMIDAEVGKAIRFAPLAEVDTTLEGQPGTTLTVPKWDYIGDAEDVAEGEAIPMTQLGFKKTTMTIKKAGKGVEITDEAILSGYGDPVGQAAKQIVEAIDHKVDADVLDALSKSTQTVEATATVDGVSKALDIFNDEDDAETVIVMNPADASTLRLDAAKEWLGATEVGANRVVSGVYGEVLGVQIVRSRKCPKGTAYMVRKGALRIMLKRNTMVETDRDITKAINQIVANKHYGVYLYKAEKAVKITLKDAAKK | not soluble |
| MVLLDNADRVVLLTEKERPRGRKIDISLTFLLPHDNWFSVEDGVSDHYFSRRGFLRASLLGVLCLRGIGSALATEFLEESYPVGRLSLRNIHTGEHLSVTYRTPDGEVDLDALNSINWLLRCHFTNQHTEMDLAVIEYLNMVDKVLGGGREFRIISGYRSPEYNRILSEHNGAVAKQSLHMEGKAIDIAVPGVSLAVLRDLAAGFRCGGVGYYPHSGFVHLDSGRFRTW | not soluble |
| MGSDKIHHHHHHMMWEQFKKEKLRGYLEAKNQRKVDFDIVELLDLINSFDDFVTLSSCSGRIAVVDLEKPGDKASSLFLGKWHEGVEVSEVAEAALRSRKVAWLIQYPPIIHVACRNIGAAKLLMNAANTAGFRRSGVISLSNYVVEIASLERIELPVAEKGLMLVDDAYLSYVVRWANEKLLKGKEKLGRLQEALESLQRENAYCSD | soluble |
| LPKVSEDHLAARRSQILDGARRCFAEYGYDGATVRRLEEVTGLSRGAIFHHFKDKDGLFLALAHEDATRMADVVAHEGLVQVMRDMLAQPEQFDWLGTRLEIARRLRNDPDFRRSWSQRSAELTEATMARLARQKSAGRLRDDVPTDVLIGYLDLVLDGLVARIASGHAGDNLSAVLDLVEESVRRRD | not soluble |
| MKTCYYELLGVETHASDLELKKAYRKKALQYHPDKNPDNVEEATQKFAVIRAAYEVLSDPQERAWYDSHKEQILNDTPPSTDDYYDYEVDATVTGVTTDELLLFFNSALYTKIDNSAAGIYQIAGKIFAKLAKDEILSGKRLGKFSEYQDDVFEQDINSIGYLKACDNFINKTDKLLYPLFGYSPTDYEYLKHFYKTWSAFNTLKSFSWKDEYMYSKNYDRRTKREVNRRNEKARQQARNEYNKTVKRFVVFIKKLDKRMKEGAKIAEEQRKLKEQQRKNELNNRRKFGNDNNDEEKFHLQSWQTVKEENWDELEKVYDNFGEFENSKNDKEGEVLIYECFICNKTFKSEKQLKNHINTKLHKKNMEEIRKEMEEENITLGLDNLSDLEKFDSADESVKEKEDIDLQALQAELAEIERKLAESSSEDESEDDNLNIEMDIEVEDVSSDENVHVNTKNKKKRKKKKKAKVDTETEESESFDDTKDKRSNELDDLLASLGDKGLQTDDDEDWSTKAKKKKGKQPKKNSKSTKSTPSLSTLPSSMSPTSAIEVCTTCGESFDSRNKLFNHVKIAGHAAVKNVVKRKKVKTKRI | not soluble |
| MSLGEEFHRNRTRFTKDPRVKSQDLLILALMDNQLRPTLHYQAQNPHRRVLVTGATGYIGGRLITELLAAGFQVRATSRKKTSLQRFDWYEDVEAVEADLTDATELDTLFKDVDVVYYLVHSMGGKNVDFEEQEQRTAENVIQAADQAGIKQIVYLSGLHPRNRKIEELSKHMRSREKVAQILLAGQTPALILRAATIIGSGSASFEIIRHLTERLPRMIAPQWITNQIEPLAIRDVLHYLISAADLKDPVNRSCDIGCGKSYEFADLLRIYADVRGLKRHVNSVPLNLPMDKLSGLWISLVTPVPFQLSFPLAQSMAEDAVTEEHSIKDIISDPPDGFIEYREAVELALAAEFDRGVPTSWDRSWTVQQPWAGQPTDPEWAGKAVYEDVRTEDTDLRAAQVWPIIEGLGGVNGWYSAPLLWRLRGIADRLIGGPGLGGRRDPRHLKLGDRIDWWRVTEIDPPHRLVLTAEMKVDGGAWLILEVADKENGGCTYTQRAIFEPKGEGHHHHHH | not soluble |
| MSASEFTLVPTTESDRTYIARLNFLTDVFGDEHADIGADFLEDYRFYVKQWDPTNGGLIAWSPKMIPAGGAWLVWGNNNDHGYGYVSEDIPEVAIAIEPRYRGKGVGSILLNKSLELARTLGAPGLSLSVDDGNPRAKKLYERLGFQHIRHSDAGFSIMCYRF | not soluble |
| MGSDKIHHHHHHMGIGIIIASHGKFAEGIHQSGSMIFGEQEKVQVVTFMPNEGPDDLYGHFNNAIAQFDADDEVLVLADLWSGSPFNQASRVMGENPERKMAIITGLNLPMLIQAYTERMMDANAGVEQVAANIIKESKEGIKALPEELNPVVEATPVAGVPADVPAEVKQSGSIPEGTVIGDGKLKINLARIDTRLLHGQVATAWTPASKANRIIVASDEVSKDELRKQLIKQAAPGGVKANVVPISKLIEVAKDPRFGNTRALILFETVQDALRAIEGGVEIPELNVGSMAHSTGKTMVNNVLSMDKDDVAAFEKLRDLGVSFDVRKVPNDAKKNLFDLINKANVK | not soluble |
| MAKKRSKLEIIQAILEACKSGSPKTRIMYGANLSYALTGRYIKMLMDLEIIRQEGKQYMLTKKGEELLEDIRKFNEMRKNMDQLKEKINSVLSIRQ | soluble |
| GMSMPNHPNLTTADAKKILNKFNCLDIAPILKPSEKESVRRALILITKLSDYQILGICADTADEGLLAMKTYSHALGYEVPIDLPVVEGPVYIKLNGKNGLCYLDSYAGHHRGVLVSCQSYYEGGINEMYGHLPLDLFV | soluble |
| MAHHHHHHMLKFRERLSKNCLPAFNLELVYQCAERALEEELNETCSAAKCVPMSGISERIFVGTWRDAADEKLLRQMCITHTLNVARELVDTEEMHRVESVPFVTSKSIPLSDSLDEDIVHHFEDAFEFIRGATRNGRILVYCRRGMSRSAAIVVAYLMESEGMSFCDAHNDVKDKRPCISLNLAFLQRLQEYEEHLEKVRAAARTN | not soluble |
| MGSDKIHHHHHHMETIERHFRCNEGSAADYAAQLREVGTVMLPAYVAFDAHELAHIDALQARLPEEPVTAGDAGDTHDIYVRRIMVDRAGERPQLVNRPHSEPILALLTDARRTRFFGDMFGANAEYFIRRCQINRMLKDSFIGLHLDAASNPDYEFSVVIQLGREFDGGEFVVHPEGRLPNVFAPTYGTVIVTSCMHRHEVRSVRANERTSLVYFYARHNGVNRRAN | not soluble |
| MGSDKIHHHHHHMNGQKIIGSQCITQCNPDLRITELIIPGTHDSATSTCYERYYRTQDLSIAEQLDCGVRFLDIRLRKEMVAAHREWVSDIRAEEIFEKCGEFLQKNPQEFVLMRIQNANERKDDFPEYGEALLSKVQQYKSLFYAWDHSQIVQDGNPKWPTIAQAAGKIVPIECAPPSMSINKIDGELWAANWHDNSQILLQDLWDGPTVEEKCVAIKTLIEKGREVHSDILLLNHISATNGELQYPDAYAAYLNEYSSRLWKQLAKRSFRGVQIYDFINPSICQELLRLNFD | not soluble |
| MAHHHHHHMKRGGRKKKGTLSNKLGKGKNDPSEDEEVIESETSSDEMGESNSASEESIDSDADNLSDKEQESQAEKQIQIYFTSNVANEKYQMEDTIYTIPATFKRIDLSRMVKKLLDIKENVSFEFLINDQILRSSIEEFLQLNNILSENVIEIKYILSITKKESTPIDKISEWISKLIIIENRLYCSTFGGSALCYDMSNFAKIDARKVADMSIFAFNVCKNDKLIDGEVKYSESVVGLSNGTIRAFLNEEMDQKIVTRSDLYLGNHDDMVKSIAFNKSGSLLITGGADNKINLYDNKEIVQKLKEYKSENDTNKRKMKHVLTPKKCIHKDVGIITTLTFFNSNNHFLCTGLEKNIKIYDADTADLFATLPYGKAIMCSDILNDNLFVTADEQSVIKLFDVRCLEEKAVISMNENKYFFHDKVITSLWGNKNGIHFLSSSHDGFTNIYDVRLNKFPVYTIQTEDKSKVLSSTWFYRESNNYVINADENNLTLHSF | not soluble |
| MGSSHHHHHHSSGLVPRGSKITVNPESKAVLAGQFVKLCCRATGHPFVQYQWFKMNKEIPNGNTSELIFNAVHVKDAGFYVCRVNNNFTFEFSQWSQLDVCDIPESFQRSVDGVSESKLQICVEPTSQKLMPGSTLVLQCVAVGSPIPHYQWFKNELPLTHETKKLYMVPYVDLEHQGTYWCHVYNDRDSQDSKKVEIIIDELNNLGHPDNKEQTTDQ | soluble |
| MIEQIGADSKSAENKQERKLYIETYGCQMNVADSEVVASVMQMDGYNLTDNVDEADTILVNTCSVRDNAEQKVLNRLAYYHSLRKKRRASSRLVIGVLGCMAERVKEELIREHHVDVVAGPDSYLDLPNLVGAAEQGEKAINVELSTQETYKDVMPLKMGGVHINGFVSIMRGCNNFCSYCIVPYTRGRERSREIESILNEVRDLKAKNFREVTLLGQNVNSYRYEQNGRIIRFPDLLAAVAEAVPDMRIRFTSPHPKDMDDEAIAVMARYRNICNHIHLPAQSGSDKMLRVMKRGYTRRWYLDRVAAIRRAIPDCAISSDLFCGFHSETEEDFEATLSLMEEVRYDSAFMFKYSERPGTYAARHLADDVPEEVKLSRLDRMIALQNRLSEESNKRDIGKTFEVLIEGFSKRSREQLFGRTQQNKVVIFDKNGHRVGQYIYVRIKDASSATLFGEVVETPTSE | not soluble |
| SFPGDYDNYLLEKEEMLRVEEMQNAEFDKKLAQEEVWIRQGIKARRTRNEGRVRALKKLREERRDRREVQGKVNLNIDDASRSGKIVF | not soluble |
| MTATWSVNKKIFLQNAITVKNNQPLMAVVKNNAYHYDLEFAVTQFIHAGIDTFSTTSLREAIQIRQLAPDATIFLMNAVYEFDLVREHQIHMTLPSLTYYYNHKNDLAGIHVHLEFENLLHRSGFKDLNEIKEVLKDHHHNQNAKMIISGLWTHFGYADEFDVSDYNVERSQWMEIVEALLSEGYQFDLIHAQNSASFYREGQILLPHHTHARVGIALYGSRPYSSLNQHDIVQSLTLKAHVIQVREVQAGDYCGYSFAFEVTKNNTKLAVVDIGYGDGILRTRAKHEALINGKRYPIRALMMSHMFVEVDGNVHAQDEVILYNNDIRIDEYTFKGVGANSEQLSAMNHDSLKKEYISNDC | not soluble |
| MNRIIDMRCRPPLPEFREYFDIPRITWHGARTGAKQVSRAFVEGSMDLFFEEMDQAGIEIAVVQGRNSPAVFMGKQFNAAFIPNERLAQIQDQYAGRFVCFAGIDVSNTAHNAVEETVRSIKSLGLKGIFIEPGRQIQSTPDDERIFPVYEKCIELDIPVNLMSGPYAGADIGVSDPLYVDRLCTRYPELKIILGHGGYPYVQQILGVAFKHTNLFVSPDMYVFAPGGQAYIDAANGALRDQMVYGSAYPLRPVTQTVSDTLGLGLSADSERAYLELNARKLLNIAAALEHHHHHH | not soluble |
| MSRSRKPDWLKMRPPSGERFTDIKQTLRDRNLNTVCEEANCPNLGECWSGRDGPGTATFMLMGDRCSRGCNFCDVETGGMDPLDPDEPQQVADAVAEIGLDYVVLTSVDRDDLPDQGASHFAETIRAIKERDPSILVECLIPDFQGEPDLVRKIIDADPDVIAHNIETVDRLQWPVRDRRAGYEQSLSVLRQVNRESDCYSKTSLMLGVGEYAHEVYQTLSDLRQAGVDVVTFGQYLQPSRSHLEVSEYVHPDAFDTWQQVAEAEFDFLYCASGPMVRSSYRAGELFVESVLREGRSADEARAEVRAND | not soluble |
| MHPALWVSKTGLDAQQTNIATISNNLANASTVGYKKSRAVFEDLFYQNINQPGGQSSQNTELPSGLMLGAGSKVVATQKVHTHGNAQTTTNALDMMVEGDGFFQVTLPDGNIGYTRNGQFTLNGEGTLVTSGSGYPVEPEIVI | not soluble |

— the DeepSol protein solubility set
